Test results as given in patent US20240415889A1.

Legend:
CD94/NKG2A [1] = experiment: reported IC50; reported value
CD94/NKG2A [2] = experiment: competitive ELISA (HLA-E tetramer)
Target sequence in this assay (main, as listed by the source): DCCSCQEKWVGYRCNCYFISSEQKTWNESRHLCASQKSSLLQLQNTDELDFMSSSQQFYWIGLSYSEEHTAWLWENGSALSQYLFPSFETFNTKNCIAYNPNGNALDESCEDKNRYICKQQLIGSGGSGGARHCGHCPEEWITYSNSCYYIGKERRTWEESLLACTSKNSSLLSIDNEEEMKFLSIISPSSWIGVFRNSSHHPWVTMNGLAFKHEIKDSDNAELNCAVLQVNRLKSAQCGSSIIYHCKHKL

CD94/NKG2A [3] = experiment: competitive ELISA (HLA-E tetramer); FIG. 26
Target sequence in this assay (main, as listed by the source): as above

CD94/NKG2A [4] = experiment: BLI
Target sequence in this assay (main, as listed by the source): as above

IC50 (CD94/NKG2A [1])	IC50 (CD94/NKG2A [2])	IC50 (CD94/NKG2A [3])	Kd (CD94/NKG2A [4])	Substance
2 nM	1.5 nM	1 nM	–	Monalizumab
–	–	–	4.32 nM	Mona analog IgG1 (LALA-PG)
